B1: GpH7-B3 variant E333_20W/GpL16-k0 (antibody, human IgG1, kappa)
heavy: not shown
light: DIVMTQSPLSLPVTPGEPASISCQASESLVHSNRNTYLHWYLQKPGQSPQLLIYKVSNRFSGVPDRFSGSGSGTDFTLKISRVEAEDVGVYYCSQNTHVPPTFGQGTKVEIERTVAAPSVFIFPPSDEQLKSGTASVVCLLNNFYPREAKVQWKVDNALQSGNSQESVTEQDSKDSTYSLSSTLTLSKADYEKHKVYACEVTHQGLSSPVTKSFNRGEC
notes: also called Ho Ab E333_20W
B2: GpH7-B3 variant T335_16H/GpL16-k0 (antibody, human IgG1, kappa)
heavy: not shown
light: B1 light
notes: also called Ho Ab T335_16H
B3: GpH7-B3 variant K326_08L/GpL16-k0 (antibody, human IgG1, kappa)
heavy: not shown
light: B1 light
notes: also called Ho Ab K326_08L
B4: GpH7-B3 variant L234_04F/GpL16-k0 (antibody, human IgG1, kappa)
heavy: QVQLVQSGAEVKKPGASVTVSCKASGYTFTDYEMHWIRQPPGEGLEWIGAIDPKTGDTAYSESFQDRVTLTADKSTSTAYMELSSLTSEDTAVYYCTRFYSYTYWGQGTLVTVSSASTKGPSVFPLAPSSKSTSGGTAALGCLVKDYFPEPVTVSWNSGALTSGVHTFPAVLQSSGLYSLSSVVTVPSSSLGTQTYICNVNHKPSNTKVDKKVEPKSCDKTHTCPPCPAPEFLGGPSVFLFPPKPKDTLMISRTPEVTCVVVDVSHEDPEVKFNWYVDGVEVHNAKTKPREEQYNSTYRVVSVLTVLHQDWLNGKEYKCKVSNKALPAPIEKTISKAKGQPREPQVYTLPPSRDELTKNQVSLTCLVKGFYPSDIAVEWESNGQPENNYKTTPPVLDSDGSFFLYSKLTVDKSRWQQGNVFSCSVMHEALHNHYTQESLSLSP
light: B1 light
notes: also called Ho Ab L234_04F
B5: GpH7-B3 variant I336_02A/GpL16-k0 (antibody, human IgG1, kappa)
heavy: not shown
light: B1 light
notes: also called Ho Ab I336_02A
B6: GpH7-B3 variant K334_01G/GpL16-k0 (antibody, human IgG1, kappa)
heavy: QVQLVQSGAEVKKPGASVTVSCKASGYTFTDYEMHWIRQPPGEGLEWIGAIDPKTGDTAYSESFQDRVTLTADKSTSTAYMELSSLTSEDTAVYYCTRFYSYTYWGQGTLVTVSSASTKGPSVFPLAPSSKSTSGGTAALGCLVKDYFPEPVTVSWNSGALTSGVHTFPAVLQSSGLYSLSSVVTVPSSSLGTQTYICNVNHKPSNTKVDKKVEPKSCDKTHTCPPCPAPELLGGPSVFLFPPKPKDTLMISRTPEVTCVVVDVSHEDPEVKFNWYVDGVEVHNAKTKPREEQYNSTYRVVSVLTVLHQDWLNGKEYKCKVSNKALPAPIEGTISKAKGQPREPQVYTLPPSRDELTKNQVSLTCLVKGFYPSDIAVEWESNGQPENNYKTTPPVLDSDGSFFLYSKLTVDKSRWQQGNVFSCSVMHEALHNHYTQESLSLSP
light: B1 light
notes: also called Ho Ab K334_01G
B7: GpH7-B3 variant I332_06M/GpL16-k0 (antibody, human IgG1, kappa)
heavy: not shown
light: B1 light
notes: also called Ho Ab I332_06M
B8: GpH7-B3 variant L234_20W/GpL16-k0 (antibody, human IgG1, kappa)
heavy: not shown
light: B1 light
notes: also called Ho Ab L234_20W
B9: GpH7-B3 variant S324_16H/GpL16-k0 (antibody, human IgG1, kappa)
heavy: not shown
light: B1 light
notes: also called Ho Ab S324_16H
B10: GpH7-B3 variant I336_18N/GpL16-k0 (antibody, human IgG1, kappa)
heavy: not shown
light: B1 light
notes: also called Ho Ab I336_18N
B11: GpH7-B3 variant S298_14T/GpL16-k0 (antibody, human IgG1, kappa)
heavy: not shown
light: B1 light
notes: also called Ho Ab S298_14T
B12: GpH7-B3 variant T335_13S/GpL16-k0 (antibody, human IgG1, kappa)
heavy: not shown
light: B1 light
notes: also called Ho Ab T335_13S
B13: GpH7-B3 variant P271_01G/GpL16-k0 (antibody, human IgG1, kappa)
heavy: not shown
light: B1 light
notes: also called Ho Ab P271_01G
B14: GpH7-B3 variant S337_15Y/GpL16-k0 (antibody, human IgG1, kappa)
heavy: not shown
light: B1 light
notes: also called Ho Ab S337_15Y
B15: GpH7-B3 variant S337_10E/GpL16-k0 (antibody, human IgG1, kappa)
heavy: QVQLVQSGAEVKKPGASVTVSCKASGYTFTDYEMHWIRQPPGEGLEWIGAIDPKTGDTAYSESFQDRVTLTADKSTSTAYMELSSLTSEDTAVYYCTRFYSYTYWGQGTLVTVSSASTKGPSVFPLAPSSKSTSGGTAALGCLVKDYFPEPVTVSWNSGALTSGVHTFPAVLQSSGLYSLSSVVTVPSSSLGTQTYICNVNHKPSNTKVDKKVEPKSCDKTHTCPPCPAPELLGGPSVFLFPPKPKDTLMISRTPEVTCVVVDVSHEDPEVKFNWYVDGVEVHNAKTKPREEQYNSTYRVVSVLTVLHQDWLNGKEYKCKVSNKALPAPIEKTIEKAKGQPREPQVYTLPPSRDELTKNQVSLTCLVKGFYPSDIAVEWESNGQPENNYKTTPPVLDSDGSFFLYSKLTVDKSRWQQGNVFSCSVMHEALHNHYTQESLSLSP
light: B1 light
notes: also called Ho Ab S337_10E
B16: GpH7-B3 variant P238_09D/GpL16-k0 (antibody, human IgG1, kappa)
heavy: not shown
light: B1 light
notes: also called Ho Ab P238_09D
B17: GpH7-B3 variant I336_06M/GpL16-k0 (antibody, human IgG1, kappa)
heavy: not shown
light: B1 light
notes: also called Ho Ab I336_06M
B18: GpH7-B3 variant T335_15Y/GpL16-k0 (antibody, human IgG1, kappa)
heavy: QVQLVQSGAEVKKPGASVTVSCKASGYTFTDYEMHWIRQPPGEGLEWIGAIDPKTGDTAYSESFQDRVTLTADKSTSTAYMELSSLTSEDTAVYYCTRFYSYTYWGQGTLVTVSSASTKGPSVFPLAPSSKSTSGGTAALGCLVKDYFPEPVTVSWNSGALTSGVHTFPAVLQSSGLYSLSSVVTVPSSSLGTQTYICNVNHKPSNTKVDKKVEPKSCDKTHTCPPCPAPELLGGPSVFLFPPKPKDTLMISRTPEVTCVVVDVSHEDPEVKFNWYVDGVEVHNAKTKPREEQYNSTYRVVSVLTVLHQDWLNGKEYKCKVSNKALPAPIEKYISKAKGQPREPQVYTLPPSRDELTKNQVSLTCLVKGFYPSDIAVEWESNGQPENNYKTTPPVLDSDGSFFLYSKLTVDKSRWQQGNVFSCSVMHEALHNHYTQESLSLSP
light: B1 light
notes: also called Ho Ab T335_15Y
B19: GpH7-B3 variant S267_02A/GpL16-k0 (antibody, human IgG1, kappa)
heavy: not shown
light: B1 light
notes: also called Ho Ab S267_02A
B20: GpH7-B3 variant H268_02A/GpL16-k0 (antibody, human IgG1, kappa)
heavy: not shown
light: B1 light
notes: also called Ho Ab H268_02A
B21: GpH7-B3 variant G236_15Y/GpL16-k0 (antibody, human IgG1, kappa)
heavy: not shown
light: B1 light
notes: also called Ho Ab G236_15Y
B22: GpH7-B3 variant P238_10E/GpL16-k0 (antibody, human IgG1, kappa)
heavy: not shown
light: B1 light
notes: also called Ho Ab P238_10E
B23: GpH7-B3 variant L234_07I/GpL16-k0 (antibody, human IgG1, kappa)
heavy: not shown
light: B1 light
notes: also called Ho Ab L234_07I
B24: GpH7-B3 variant S337_20W/GpL16-k0 (antibody, human IgG1, kappa)
heavy: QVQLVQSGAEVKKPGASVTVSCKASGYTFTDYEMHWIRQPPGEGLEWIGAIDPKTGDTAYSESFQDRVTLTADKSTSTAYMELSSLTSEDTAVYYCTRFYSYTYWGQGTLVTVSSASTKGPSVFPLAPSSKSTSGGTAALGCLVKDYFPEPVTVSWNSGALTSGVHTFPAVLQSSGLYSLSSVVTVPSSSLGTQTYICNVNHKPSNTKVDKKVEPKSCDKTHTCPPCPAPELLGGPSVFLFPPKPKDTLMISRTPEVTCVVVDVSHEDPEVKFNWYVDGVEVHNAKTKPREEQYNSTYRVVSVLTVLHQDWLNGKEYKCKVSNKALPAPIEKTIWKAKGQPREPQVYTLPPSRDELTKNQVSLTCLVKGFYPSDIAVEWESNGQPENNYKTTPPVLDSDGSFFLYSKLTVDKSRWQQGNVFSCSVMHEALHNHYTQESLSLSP
light: B1 light
notes: also called Ho Ab S337_20W
B25: GpH7-B3 variant T335_07I/GpL16-k0 (antibody, human IgG1, kappa)
heavy: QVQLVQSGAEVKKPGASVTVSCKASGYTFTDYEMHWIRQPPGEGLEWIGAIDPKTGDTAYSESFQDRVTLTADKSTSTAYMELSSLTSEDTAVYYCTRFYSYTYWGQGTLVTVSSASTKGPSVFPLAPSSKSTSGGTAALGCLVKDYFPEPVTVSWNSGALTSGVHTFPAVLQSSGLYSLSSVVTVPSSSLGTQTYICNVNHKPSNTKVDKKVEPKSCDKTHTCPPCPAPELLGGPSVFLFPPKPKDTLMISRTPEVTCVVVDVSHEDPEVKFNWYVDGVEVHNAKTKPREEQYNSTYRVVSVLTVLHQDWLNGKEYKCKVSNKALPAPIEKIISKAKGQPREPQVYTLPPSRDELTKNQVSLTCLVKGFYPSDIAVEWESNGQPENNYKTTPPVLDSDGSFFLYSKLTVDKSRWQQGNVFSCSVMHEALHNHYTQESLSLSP
light: B1 light
notes: also called Ho Ab T335_07I
B26: GpH7-B3 variant Q295_14T/GpL16-k0 (antibody, human IgG1, kappa)
heavy: not shown
light: B1 light
notes: also called Ho Ab Q295_14T
B27: GpH7-B3 variant S337_18N/GpL16-k0 (antibody, human IgG1, kappa)
heavy: not shown
light: B1 light
notes: also called Ho Ab S337_18N
B28: GpH7-B3 variant S267_09D/GpL16-k0 (antibody, human IgG1, kappa)
heavy: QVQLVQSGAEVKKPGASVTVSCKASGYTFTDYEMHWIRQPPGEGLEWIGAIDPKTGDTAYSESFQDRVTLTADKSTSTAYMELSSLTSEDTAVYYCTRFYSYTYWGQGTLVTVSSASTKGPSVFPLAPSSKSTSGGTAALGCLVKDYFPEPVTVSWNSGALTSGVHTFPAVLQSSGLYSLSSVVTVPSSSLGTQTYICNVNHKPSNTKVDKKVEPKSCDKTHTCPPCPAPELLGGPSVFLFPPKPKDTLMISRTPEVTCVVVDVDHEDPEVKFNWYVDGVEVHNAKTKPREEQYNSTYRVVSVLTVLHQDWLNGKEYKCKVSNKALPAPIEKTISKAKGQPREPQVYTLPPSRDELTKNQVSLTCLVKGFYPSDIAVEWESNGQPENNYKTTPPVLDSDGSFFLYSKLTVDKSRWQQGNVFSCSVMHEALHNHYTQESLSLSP
light: B1 light
notes: also called Ho Ab S267_09D
B29: GpH7-B3 variant I336_08L/GpL16-k0 (antibody, human IgG1, kappa)
heavy: not shown
light: B1 light
notes: also called Ho Ab I336_08L
B30: GpH7-B3 variant K326_07I/GpL16-k0 (antibody, human IgG1, kappa)
heavy: not shown
light: B1 light
notes: also called Ho Ab K326_07I
B31: GpH7-B3 variant H268_18N/GpL16-k0 (antibody, human IgG1, kappa)
heavy: not shown
light: B1 light
notes: also called Ho Ab H268_18N
B32: GpH7-B3 variant S324_02A/GpL16-k0 (antibody, human IgG1, kappa)
heavy: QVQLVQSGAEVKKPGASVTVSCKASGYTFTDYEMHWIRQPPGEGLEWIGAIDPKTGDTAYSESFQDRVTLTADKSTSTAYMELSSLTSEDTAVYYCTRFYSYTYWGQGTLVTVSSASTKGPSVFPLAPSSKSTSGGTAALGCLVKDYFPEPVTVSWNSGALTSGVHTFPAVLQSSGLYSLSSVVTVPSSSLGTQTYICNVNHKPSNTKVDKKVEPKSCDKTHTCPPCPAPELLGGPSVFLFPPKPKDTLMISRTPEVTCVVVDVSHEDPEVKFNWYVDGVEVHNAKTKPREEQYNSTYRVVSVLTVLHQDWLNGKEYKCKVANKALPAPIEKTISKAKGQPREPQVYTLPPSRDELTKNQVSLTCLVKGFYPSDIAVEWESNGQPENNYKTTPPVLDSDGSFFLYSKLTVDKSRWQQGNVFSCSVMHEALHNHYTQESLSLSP
light: B1 light
notes: also called Ho Ab S324_02A
B33: GpH7-B3 variant K334_09D/GpL16-k0 (antibody, human IgG1, kappa)
heavy: not shown
light: B1 light
notes: also called Ho Ab K334_09D
B34: GpH7-B3 variant S337_09D/GpL16-k0 (antibody, human IgG1, kappa)
heavy: not shown
light: B1 light
notes: also called Ho Ab S337_09D
B35: GpH7-B3 variant I336_03V/GpL16-k0 (antibody, human IgG1, kappa)
heavy: not shown
light: B1 light
notes: also called Ho Ab I336_03V
B36: GpH7-B3 variant T335_10E/GpL16-k0 (antibody, human IgG1, kappa)
heavy: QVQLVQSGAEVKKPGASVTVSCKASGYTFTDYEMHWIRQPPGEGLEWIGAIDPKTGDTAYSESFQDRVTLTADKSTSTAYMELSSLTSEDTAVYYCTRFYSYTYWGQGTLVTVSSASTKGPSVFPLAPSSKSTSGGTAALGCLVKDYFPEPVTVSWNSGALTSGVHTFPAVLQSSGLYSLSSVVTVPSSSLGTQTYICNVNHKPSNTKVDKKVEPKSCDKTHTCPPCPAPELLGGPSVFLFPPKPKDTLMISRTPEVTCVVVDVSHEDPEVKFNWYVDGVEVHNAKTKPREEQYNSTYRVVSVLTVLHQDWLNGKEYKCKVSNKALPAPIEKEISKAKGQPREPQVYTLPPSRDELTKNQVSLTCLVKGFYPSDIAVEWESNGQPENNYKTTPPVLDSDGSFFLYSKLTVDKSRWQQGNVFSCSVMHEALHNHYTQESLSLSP
light: B1 light
notes: also called Ho Ab T335_10E
B37: GpH7-B3 variant S337_14T/GpL16-k0 (antibody, human IgG1, kappa)
heavy: not shown
light: B1 light
notes: also called Ho Ab S337_14T
B38: GpH7-B3 variant S324_15Y/GpL16-k0 (antibody, human IgG1, kappa)
heavy: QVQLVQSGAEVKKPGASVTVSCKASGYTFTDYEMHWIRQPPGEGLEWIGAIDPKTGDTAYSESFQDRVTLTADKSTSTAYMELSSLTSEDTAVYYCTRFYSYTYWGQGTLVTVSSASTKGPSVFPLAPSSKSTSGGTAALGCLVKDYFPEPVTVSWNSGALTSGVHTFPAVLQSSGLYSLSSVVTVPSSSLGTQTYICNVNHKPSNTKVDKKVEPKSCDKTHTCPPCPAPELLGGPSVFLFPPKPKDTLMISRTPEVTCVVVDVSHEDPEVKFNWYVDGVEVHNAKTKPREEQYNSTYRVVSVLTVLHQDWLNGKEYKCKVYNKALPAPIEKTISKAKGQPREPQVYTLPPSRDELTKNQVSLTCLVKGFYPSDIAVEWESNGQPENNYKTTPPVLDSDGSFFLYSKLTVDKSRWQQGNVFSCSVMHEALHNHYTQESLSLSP
light: B1 light
notes: also called Ho Ab S324_15Y
B39: GpH7-B3 variant T335_19Q/GpL16-k0 (antibody, human IgG1, kappa)
heavy: not shown
light: B1 light
notes: also called Ho Ab T335_19Q
B40: GpH7-B3 variant I332_01G/GpL16-k0 (antibody, human IgG1, kappa)
heavy: not shown
light: B1 light
notes: also called Ho Ab I332_01G

T1 sequence (P08637 17-208): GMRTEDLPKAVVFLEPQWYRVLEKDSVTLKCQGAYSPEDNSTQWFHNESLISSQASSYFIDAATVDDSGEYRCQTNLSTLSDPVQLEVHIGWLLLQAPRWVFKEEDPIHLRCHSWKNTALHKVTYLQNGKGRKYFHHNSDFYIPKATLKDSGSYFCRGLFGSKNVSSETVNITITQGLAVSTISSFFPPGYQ

The test addresses T1, FcγRIIIa extracellular domain with C-terminal His tag (human, UniProt P08637 17-208).
T1 construct: extracellular domain; also called FcgRIIIa; 3a; not shown: His tag at the C terminus
The experiment in a line: SPR relative binding; GpH7-B3/GpL16-k0 = 100. Here is the method:
Analysis of interaction between objective antibody and the FcγR was carried out using Biacore T100 (GE Healthcare). HBS-EP+ (GE Healthcare) was used as the running buffer, and the measurement temperature was set to 25° C. Chips produced by immobilizing the antigen peptide by the amine coupling method to a Series S Sencor Chip CM5 (GE Healthcare), or alternatively, chips produced by allowing preliminarily biotinylated antigen peptides to interact with and immobilize onto a Series S Sensor Chip SA (certified) (GE Healthcare) were used. Antibodies of interest were captured onto an antigen peptide-immobilized chip, and allowed to interact to each FcγR diluted with running buffer. To regenerate and repeatedly use the chip, the antibodies captured on the chip were washed off by reacting 10 mM glycine-HCl, pH 1.5.
The FcγR-binding activity of each antibody was assessed primarily using as an indicator the FcγR-binding activity and dissociation constant for FcγR.
With B1, the Ho/Con_3a is 90.9 % of control.
B2: the Ho/Con_3a is 99.5 % of control.
For the molecule B3, the Ho/Con_3a was 114 % of control.
On to B4, for which the Ho/Con_3a is 49.9 % of control.
The figure for B5 is 104 % of control; for B6 it is 104 % of control; for B7 it is 95.4 % of control.
Take B8: the Ho/Con_3a was 37.1 % of control.
Turning to B9, the Ho/Con_3a is 103 % of control.
In the case of B10, the Ho/Con_3a was 101 % of control.
For the molecule B11, the Ho/Con_3a was 107 % of control.
With B12, the Ho/Con_3a was 97.6 % of control.
Turning to B13, the Ho/Con_3a was 88 % of control.
Regarding B14, the Ho/Con_3a was 99 % of control.
On to B15, for which the Ho/Con_3a is 100 % of control.
Consider B16, for which the Ho/Con_3a was -0.1 % of control.
Then B17, with 107 % of control.
As to B18, the Ho/Con_3a was 91.5 % of control.
As to B19, the Ho/Con_3a was 145 % of control.
Take B20: the Ho/Con_3a was 118 % of control.
For the molecule B21, the Ho/Con_3a was 41.6 % of control.
As to B22, the Ho/Con_3a was 0.8 % of control.
As to B23, the Ho/Con_3a is 98.2 % of control.
Regarding B24, the Ho/Con_3a is 87.8 % of control.
The figure for B25 is 107 % of control; for B26 it is 108 % of control; for B27 it is 102 % of control.
Regarding B28, the Ho/Con_3a was 160 % of control.
Then B29, with 95.8 % of control; and B30, with 134 % of control; and B31, with 90.3 % of control.
Turning to B32, the Ho/Con_3a is 99.8 % of control.
B33: the Ho/Con_3a was 150 % of control.
Take B34: the Ho/Con_3a was 106 % of control.
Turning to B35, the Ho/Con_3a was 110 % of control.
Turning to B36, the Ho/Con_3a was 102 % of control.
For B37, the Ho/Con_3a was 97.2 % of control.
Regarding B38, the Ho/Con_3a was 100 % of control.
Regarding B39, the Ho/Con_3a is 97.7 % of control.
As for B40, the Ho/Con_3a was 104 % of control.

The values above are taken from patent US20180155451A1 (published 2018).
